Data taken from patent publication US9616101B2, “Differentiation marker and differentiation control of eye cell” (Kyoto Prefectural Public University Corporation, priority 2012, dated 2017).
Entries after “also recorded” stand apart in the source; their conditions may differ.

Legend:
[1] = system: cultured human corneal endothelial cell; experiment: Culture of human corneal endothelial cells with or without RSPO: cell morphology and cell density; assay type: cell-based
Excerpt: GPR49/LGR5 was an orphan receptor of a G protein-coupled receptor superfamily, and a ligand thereof was not known previously. […] In order to determine the function of RSPO on CEC differentiation, the present inventors cultured primate CEC with human recombinant RSPO, or without human recombinant RSPO. […] In order to determine the function of RSPO on CEC proliferation, the present inventors performed immunohistochemical research on Ki67. […] In view of these findings, the present inventors considered that among a RSPO family, particularly, RSPO1 can play an important role in maintenance of CEC.
Finally, in order to further determine influence of RSPO1 on CEC, the present inventors maintained a secondary culture of human CEC in the presence or absence of RSPO1. […] The cell density of a RSPO1-treated cell increased as compared with that of a non-treated cell (FIG. 6B-E). In order to verify which pathway regulated this type of corneal endothelial MT, the present inventors investigated the expression level of a Wnt/β-catenin-associated molecule using Western blotting analysis. […] Further, the protein level of a cell transfected with NT and GPR49/LGR5 and treated with RSPO1 decreased as compared with that of a cell group not treated with RSPO1 (FIG. 6B-F).
A cultured human corneal endothelial cell was cultured for 7 days under conditions of 37° C. and 5% CO2, with being divided into a group of addition of RSPO1 (50 ng/ml) and a group of addition of no RSPO1. […] From the above result, the effect of suppressing differentiation of a corneal endothelial cell was recognized in RSPO1.

[2] = system: cultured monkey corneal endothelial cell; experiment: Detection of proliferating cells with Click-iT EdU Imaging Kit after R-spondin 1 addition; assay type: cell-based, cynomolgus monkey; conditions: 10 ng/ml or 50 ng/ml R-spondin 1; almost confluent cells; 48 hours after addition
Description: After addition of an R-spondin 1 protein to a cultured monkey corneal endothelial cell and culturing for 48 hours, a cell during proliferation was detected using the Click-iT Edu imaging Kit, and the positivity rates of EdU and the cell densities of a control cell and a cell to which R-spondin 1 was added were compared.
EdU (5-ethynyl-2′-deoxyuridine) is a modified nucleic acid taken into DNA at a DNA synthesis phase by a chemical reaction, and is widely used in place of a conventional BrdU for identifying a DNA synthesis phase cell. By measuring the positivity rate of EdU, the proliferative cell rate in a cultured cell is found.
A cultured monkey corneal endothelial cell (Lot. 20111222-4 P2) was treated with 0.05% trypsin at 37° C. for 10 minutes, peeled from a T-25 flask, and suspended in a culture medium (10% FBS+bFGF/DMEM). The number of cells was counted, and the suspension was adjusted with a culture medium to 3×10^4 cells/300 μl. Cells were seeded on a Lab-TekII chamber Slide (8 well) coated with FNS, in 300 μl/well.
At 7 days after cell seeding, a medium was exchanged with a medium containing R-spondin 1 (0, 10, 50 ng/ml) in the state where cells were almost confluent, and at 24 hours after addition of R-spondin 1, Click-iT EdU was added so that the final concentration was 10 μM. […]

[3] = system: human corneal endothelial cell; experiment: Ki67 immunostaining of human corneal endothelial cells incubated with RSPO1 to 4; assay type: cell-based
Excerpt: A corneal tissue was embedded with OCT compound (catalog No.: 4583; Sakura Finetek, Tokyo, Japan), and frozen in liquid nitrogen to prepare a frozen corneal tissue section. The frozen block was sliced to 8 μm, applied on a silane-coating slide, and air-dried. For preparing the whole tissue section, a Descemet's membrane containing a corneal endothelial cell was peeled from a corneal tissue, allowed to stand in ice-cooled 100% acetone for 30 seconds, applied on a silane-coating slide, and air-dried. As a cultured corneal endothelial cell, a cell cultured on a LabTek 8-well plastic chamber slide was used. Ice-cooled 100% acetone was added to a corneal tissue and the cultured cell, the resultant was allowed to stand at 4° C. for 15 minutes to fix the cell. After shaking and washing with 0.15% TritonX/PBS-, 1% bovine serum albumin (catalog No.: A4503BSA; Sigma-Aldrich, St. Louis, Mo.) was added, and allowed to stand at room temperature for 30 minutes to perform blocking. A primary antibody was diluted with 1% BSA, and incubated at room temperature for 1 hour. As a primary antibody to be used, anti-rabbit GPR49/LGR5 (catalog No.: GTX71143; 1: 200; GeneTex Inc., San Antonio, Tex.), anti-rabbit Nestin (catalog No.: PRB-570C; 1: 200; COVANCE, Berkeley, Calif.), anti-mouse ABCG2 (catalog No.: NC_236; 1: 2; Kamiya biomedical CO., Seattle, Wash. USA), anti-mouse Ki-67 (catalog No.: 556003; 1: 200 BD Pharmingen™ NJ, USA), anti-rabbit Na^+/K^+ ATPase (catalog No.: A132; 1: 100; Zymed), and anti-rabbit ZO1 (Zymed Laboratries Inc., South San Francisco, Calif.) were used. The resultant was washed with 0.15% Triton/PBS- twice, and PBS- once.
A secondary antibody was diluted with a mixed solution of 1% BSA and 0.15% TrironX/PBS-, and incubated at room temperature for 30 minutes. As a secondary antibody to be used, Alexa™ Fluor 488-labeled (conjugated) goat anti-rabbit IgG (catalog No.: A11034; 1: 1500; Molecular Probe-Invitrogen) and Alexa™ Fluor 488-labeled (conjugated) goat anti-mouse IgG (catalog No.: A11029; 1: 1500; Molecular Probe-Invitrogen) were used. The secondary antibody was shaken and washed with 0.15% Triton/PBS- twice, and PBS- once, subjected to nuclear staining with propidium iodide (catalog No.: SP29004-41; PI; Nacalai Tesque, Inc. Kyoto, Japan), and embedded while covered with a cover glass.
In order to investigate a relationship between R-sporadin 1 (RSPO1), R-spondin 2 (RSPO2), R-spondin 3 (RSPO3), or R-spondin 4 (RSPO4) and differentiation of a corneal endothelial cell, the relationship was studied using RSPO1. Reagents used are as follows. • RSPO1 R&D systems catalog No.: 4645-RS • RSPO2 R&D systems catalog No.: 3266-RS • RSPO3 R&D systems catalog No.: 3500-RS • RSPO4 R&D systems catalog No.: 4575-RS
Then, for the purpose of investigating the influence of RSPO on cell proliferation, RSPO1 to 4 were incubated into a human corneal endothelial cell under conditions of 37° C. and 5% CO2 for 1 day. Thereafter, Ki-67 being a cell proliferation marker was immunostained.

B1: R-spondin 1: Recombinant Human R-spondin 1 (R&D Cat. 4645-RS); ligand of GPR49/LGR5 (protein, listed as Homo sapiens)
chain: MRLGLCVVALVLSWTHLTISSRGIKGKRQRRISAEGSQACAKGCELCSEVNGCLKCSPKLFILLERNDIRQVGVCLPSCPPGYFDARNPDMNKCIKCKIEHCEACFSHNFCTKCKEGLYLHKGRCYPACPEGSSAANGTMECSSPAQCEMSEWSPWGPCSKKQQLCGFRRGSEERTRRVLHAPVGDHAACSDTKETRRCTVRRVPCPEGQKRRKGGQGRRENANRNLARKESKEAGAGSRRRKGQQQQQQQGTVGPLTSAGPA
With B1 the “cell morphology / in vitro CEC differentiation (phase contrast)” value ([1]; 50 ng/ml (FIG. 6C-B)) was “compact and uniform hexagonal cell having a smaller size”, the “cell form in secondary culture of human CEC” value ([1]; RSPO1 50 ng/ml (FIG. 6B-E), without RSPO1 fibroblast-like phenotype) was “maintained its hexagonal form” and the “morphology of a cell” value ([1]; RSPO1 50 ng/ml, 7 days, non-addition group differentiated into fibroblast-like cells) was “maintained in a cobblestone manner”. For the same molecule, the “cell density as compared with a non-treated cell” value ([1]; secondary culture of human CEC, RSPO1 50 ng/ml) was “increased”, the “EdU-positive cell/DAPI as compared with a control” value [2] was “increased two times; also recorded: increased twice” and the “level of the Ki67(+) cell ratio” value ([3]; 50 ng/ml (FIG. 6C-C), as compared with other RSPOs) was “dramatically increased”. The Ki67 staining ([3]; R-spondin 1 1000 ng/ml (FIG. 11)) was “staining is also observed”, the “Ki67-positive cell rate as compared with a control” value ([3]; RSPO1 50 ng/ml, 500 ng/ml (FIG. 11)) was “increased” and the “proliferation of a human corneal endothelial cell (Ki-67 immunostain)” value ([3]; incubated 1 day, 37° C., 5% CO2) was “statistically significantly promoted proliferation”.
